We go through one substance from patent US20090305982A1.

The target of experiment [1] is human IL-4 receptor alpha on cells (peripheral blood lymphocytes, primary B cells, TF-1, A549, PBMC) (human) (UniProt P24394). Put plainly: cell-based or functional assay.
Experiment [2] has as its target cynomolgus IL-4 receptor alpha on peripheral blood lymphocytes (cynomolgus). Put plainly: flow cytometry, cynomolgus peripheral blood lymphocytes, 10 µg/ml. A general note: In flow cytometry, cells or beads pass a laser one at a time.
Experiment [3] addresses human IL-4 receptor alpha on cells (peripheral blood lymphocytes, primary B cells, TF-1, A549, PBMC) (human) (UniProt P24394). Put plainly: flow cytometry, human peripheral blood lymphocytes, 10 µg/ml.

Turning to “wildtype tear lipocalin (gene product of pTLPC10) (from UniProt P31025 23-175)”, in experiment [1], the % Positive for STAT-6 phosphorylation, TF-1 cells + IL-4 stood at 72%; the % Positive for STAT-6 phosphorylation, TF-1 cells + IL-13 came to 84%; the MFI, STAT-6 phosphorylation, TF-1 cells + IL-4 worked out at 13.1; the MFI, STAT-6 phosphorylation, TF-1 cells + IL-13 worked out at 18.6. Further, in experiment [2], the % Positive was found to be 5% and the MFI came out at 1.9. In experiment [3], this substance yielded a % Positive of 9% and an MFI of 3.2.
